Publication PMC11891784, “Reversible enzyme-catalysed NAD^+/NADH electrochemistry” (Chemical Science, 2025)

Substrate: NC(=O)c1ccc[n+]([C@@H]2O[C@H](COP(=O)(O)OP(=O)(O)OC[C@H]3O[C@@H](n4cnc5c(N)ncnc54)[C@H](O)[C@@H]3O)[C@@H](O)[C@H]2O)c1
Assay: mediated catalytic cyclic voltammetry
Type: biochemical, Cupriavidus necator
Details: methyl viologen 60 μM as electron donor, 50 mM phosphate pH 7.5, 25 °C, N2, FdsBG 0.34 μM, turnover number calculated from simulated rate constant and Km

B1: FdsBG (subcomplex of formate dehydrogenase FdsDABG) (Cupriavidus necator H16) (protein)
chain: MITITTIFVPRDSTALALGADDVARAIAREAAARNEHVRIVRNGSRGMFWLEPLVEVQTGAGRVAYGPVSAADVPGLFDAGLLQGGEHALSQGVTEEIPFLKQQERLTFARVGITDPLSLDDYRAHEGFAGLERALAMQPAEIVQEVTDSGLRGRGGAAFPTGIKWKTVLGAQSAVKYIVCNADEGDSGTFSDRMVMEDDPFMLIEGMTIAALAVGAEQGYIYCRSEYPHAIAVLESAIGIANAAGWLGDDIRGSGKRFHLEVRKGAGAYVCGEETALLESLEGRRGVVRAKPPLPALQGLFGKPTVINNVISLATVPVILARGAQYYRDYGMGRSRGTLPFQLAGNIKQGGLVEKAFGVTLRELLVDYGGGTRSGRAIRAVQVGGPLGAYLPESRFDVPLDYEAYAAFGGVVGHGGIVVFDETVDMAKQARYAMEFCAIESCGKCTPCRIGSTRGVEVMDRIIAGEQPVKHVALVRDLCDTMLNGSLCAMGGMTPYPVLSALNEFPEDFGLASNPAKAA
notes: FdsBG subcomplex without FdsA and FdsD; FdsB 55 kDa (FMN, [4Fe-4S]) and FdsG 19 kDa ([2Fe-2S]); 74 kDa in total; expressed and purified by a published procedure; with NAD-dependent formate dehydrogenase gamma subunit
Km: 1.2(1) mM
kcat: 2400 s⁻¹
